Data published in PMC6504876, “TFIIE orchestrates the recruitment of the TFIIH kinase module at promoter before release during transcription” (Nature Communications, 2019).

B1: His-TFIIEβ/WT [not stated] / Flag-TFIIEα [not stated] (parent)
chain 1: MDPSLLRERELFKKRALSTPVVEKRSASSESSSSSSKKKKTKVEHGGSSGSKQNSDHSNGSFNLKALSGSSGYKFGVLAKIVNYMKTRHQRGDTHPLTLDEILDETQHLDIGLKQKQWLMTEALVNNPKIEVIDGKYAFKPKYNVRDKKALLRLLDQHDQRGLGGILLEDIEEALPNSQKAVKALGDQILFVNRPDKKKILFFNDKSCQFSVDEEFQKLWRSVTVDSMDEEKIEEYLKRQGISSMQESGPKKVAPIQRRKKPASQKKRRFKTHNEHLAGVLKDYSDITSSK
chain 2: MADPDVLTEVPAALKRLAKYVIRGFYGIEHALALDILIRNSCVKEEDMLELLKFDRKQLRSVLNNLKGDKFIKCRMRVETAADGKTTRHNYYFINYRTLVNVVKYKLDHMRRRIETDERDSTNRASFKCPVCSSTFTDLEANQLFDPMTGTFRCTFCHTEVEEDESAMPKKDARTLLARFNEQIEPIYALLRETEDVNLAYEILEPEPTEIPALKQSKDHAATTAGAASLAGGHHREAWATKGPSYEDLYTQNVVINMDDQEDLHRASLEGKSAKERPIWLRESTVQGAYGSEDMKEGGIDMDAFQEREEGHAGPDDNEEVMRALLIHEKKTSSAMAGSVGAAAPVTAANGSDSESETSESDDDSPPRPAAVAVHKREEDEEEDDEFEEVADDPIVMVAGRPFSYSEVSQRPELVAQMTPEEKEAYIAMGQRMFEDLFE

Variants of: B1
Assay: co-immunoprecipitation (IP of IIEα), immunoblot quantified
Details: with Flag-TFIIEα, n = 3, means ± s.d., read off a plot

Row | screen value (150 mM KCl) [a.u.] | screen value (500 mM KCl) [a.u.] | Variant
1 | 0.85 | 0.45 | chain 1 MDPSLLRERELFKKRALSTPVVEKRSASSESSSSSSKKKKTKVEHGGSSGSKQNSDHSNGSFNLKALSGSSGYKFGVLAKIVNYMKTRHQRGDTHPLTLDEILDETQHLDIGLKQKQWLMTEALVNNPKIEVIDGKYAFKPKYNVRDKKALLRLLDQHDQRGLGGILLEDIEEALPNSQKAVKALGYQILFVNRPDKKKILFFNDKSCQFSVDEEFQKLWRSVTVDSMDEEKIEEYLKRQGISSMQESGPKKVAPIQRRKKPASQKKRRFKTHNEHLAGVLKDYSDITSSK [chain 1 D187Y]
2 | 0.78 | 0.67 | chain 1 MDPSLLRERELFKKRALSTPVVEKRSASSESSSSSSKKKKTKVEHGGSSGSKQNSDHSNGSFNLKALSGSSGYKFGVLAKIVNYMKTRHQRGDTHPLTLDEILDETQHLDIGLKQKQWLMTEALVNNPKIEVIDGKYAFKPKYNVRDKKPLLRLLDQHDQRGLGGILLEDIEEALPNSQKAVKALGDQILFVNRPDKKKILFFNDKSCQFSVDEEFQKLWRSVTVDSMDEEKIEEYLKRQGISSMQESGPKKVAPIQRRKKPASQKKRRFKTHNEHLAGVLKDYSDITSSK [chain 1 A150P]
